Measured values as given in patent US20110280900A1 (INTERVET INTERNATIONAL B V, published 2011).

Molecular target: the molecule itself
Experiment: immunoblot after non-denaturing gel; only the 65 kDa band detected

B1: Clostridium chauvoei toxin A (CctA), native secreted toxin in C. chauvoei culture supernatants (other)
chain: QENTCIVETPSEGVKTFTSSDTAYADYNCFKTNLSVTFIEDQHNNQLTALVSTEGSFIPSGLSRVGGYYQADMYWPSKYYTTLTTYDRNNRVKITKSIPTNQIDTVSVSETMGYSIGGSLSIEYGKEGPKAGGGINGSYTAQRSVTYDQPDYRTLLMKDSVNSASWEVAFNATKDGYDRDSYHGIYGNQLFMRYRLYNTGINNLTTDNNLSSLIVGGFSPKVVIALTAPKGTEESTVKVEYNRFNDQYRLRWSGTEWYGENNRNSRIDSSSESFILNWKNHTVEHAGY
notes: also called CctA toxin; mature CctA
B1: binds.
